Data: US10215752 (MIT, dated 2019)
Like-named read-outs stand apart in the source and are kept apart here.

B1: His-tag Jun (P05412) (other, human)
chain: MTAKMETTFYDDALNASFLPSESGPYGYSNPKILKQSMTLNLADPVGSLKPHLRAKNSDLLTSPDVGLLKLASPELERLIIQSSNGHITTTPTPTQFLCPKNVTDEQEGFAEGFVRALAELHSQNTLPSVTSAAQPVNGAGMVAPAVASVAGGSGSGGFSASLHSEPPVYANLSNFNPGALSSGGGAPSYGAAGLAFPAQPQQQQQPPHHLPQQMPVQHPRLQALKEEPQTVPEMPGETPPLSPIDMESQERIKAERKRMRNRIAASKCRKRKLERIARLEEKVKTLKAQNSELASTANMLREQVAQLKQKVMNHVNSGCQLMLTQQLQTFHHHHHH
notes: Capture protein, expressed on the chip by cell-free synthesis with a His-tag
B2: His-tag p16 (P42771) (other, human)
chain: MEPAAGSSMEPSADWLATAAARGRVEEVRALLEAGALPNAPNSYGRRPIQVMMMGSARVAELLLLHGAEPNCADPATLTRPVHDAAREGFLDTLVVLHRAGARLDVRDAWGRLPVDLAEELGHRDVARYLRAAAGGTRGSNHARIDAAEGPSDIPDHHHHHH
notes: as for B1
B3: His-tag CDK4 (P11802) (enzyme, human)
chain: MATSRYEPVAEIGVGAYGTVYKARDPHSGHFVALKSVRVPNGGGGGGGLPISTVREVALLRRLEAFEHPNVVRLMDVCATSRTDREIKVTLVFEHVDQDLRTYLDKAPPPGLPAETIKDLMRQFLRGLDFLHANCIVHRDLKPENILVTSGGTVKLADFGLARIYSYQMALTPVVVTLWYRAPEVLLQSTYATPVDMWSVGCIFAEMFRRKPLFCGNSEADQLGKIFDLIGLPPEDDWPRDVSLPRGAFPPRGPRPVQSVVPEMEESGAQLLLEMLTFNPHKRISAFRALQHSYLHKDEGNPEHHHHHH
notes: as for B1
B4: Jun (P05412) without His-tag (other, human, UniProt P05412 1-331, looked up)
chain: MTAKMETTFYDDALNASFLPSESGPYGYSNPKILKQSMTLNLADPVGSLKPHLRAKNSDLLTSPDVGLLKLASPELERLIIQSSNGHITTTPTPTQFLCPKNVTDEQEGFAEGFVRALAELHSQNTLPSVTSAAQPVNGAGMVAPAVASVAGGSGSGGFSASLHSEPPVYANLSNFNPGALSSGGGAPSYGAAGLAFPAQPQQQQQPPHHLPQQMPVQHPRLQALKEEPQTVPEMPGETPPLSPIDMESQERIKAERKRMRNRIAASKCRKRKLERIARLEEKVKTLKAQNSELASTANMLREQVAQLKQKVMNHVNSGCQLMLTQQLQTF
notes: also called Jun (noHis)
B5: p16 (P42771) without His-tag (other, human, UniProt P42771 1-156, looked up)
chain: MEPAAGSSMEPSADWLATAAARGRVEEVRALLEAGALPNAPNSYGRRPIQVMMMGSARVAELLLLHGAEPNCADPATLTRPVHDAAREGFLDTLVVLHRAGARLDVRDAWGRLPVDLAEELGHRDVARYLRAAAGGTRGSNHARIDAAEGPSDIPD
notes: also called p16 (noHis)
B6: CDK4 (P11802) without His-tag (enzyme, human, UniProt P11802 1-303, looked up)
chain: MATSRYEPVAEIGVGAYGTVYKARDPHSGHFVALKSVRVPNGGGGGGGLPISTVREVALLRRLEAFEHPNVVRLMDVCATSRTDREIKVTLVFEHVDQDLRTYLDKAPPPGLPAETIKDLMRQFLRGLDFLHANCIVHRDLKPENILVTSGGTVKLADFGLARIYSYQMALTPVVVTLWYRAPEVLLQSTYATPVDMWSVGCIFAEMFRRKPLFCGNSEADQLGKIFDLIGLPPEDDWPRDVSLPRGAFPPRGPRPVQSVVPEMEESGAQLLLEMLTFNPHKRISAFRALQHSYLHKDEGNPE
notes: also called CDK4 (noHis)

What was measured:
[1] = target: T1, Fos (P01100) without His-tag (human, UniProt P01100 1-380); experiment: label-free nIR fluorescence (1045 nm) of SWNT/chitosan Ni-NTA array spots; His-tag capture protein expressed on the spot, then cell-free expressed analyte protein without His-tag added; pair label = capture-analyte
T1 construct: also called Fos (noHis)
T1 sequence (P01100 whole entry, one chain of several): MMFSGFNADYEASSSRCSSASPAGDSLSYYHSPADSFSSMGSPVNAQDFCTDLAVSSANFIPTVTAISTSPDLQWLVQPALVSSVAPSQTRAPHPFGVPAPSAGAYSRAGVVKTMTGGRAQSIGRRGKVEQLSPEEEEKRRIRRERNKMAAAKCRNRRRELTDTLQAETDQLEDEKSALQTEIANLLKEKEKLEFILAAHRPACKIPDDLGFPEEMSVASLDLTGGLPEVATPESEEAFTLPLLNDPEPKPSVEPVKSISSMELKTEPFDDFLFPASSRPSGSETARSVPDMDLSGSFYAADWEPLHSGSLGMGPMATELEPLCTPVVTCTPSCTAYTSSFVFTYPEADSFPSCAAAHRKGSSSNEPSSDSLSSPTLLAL

[2] = target: T1, Fos (P01100) without His-tag; experiment: label-free nIR fluorescence (1045 nm) of SWNT/chitosan Ni-NTA array spots; His-tag capture protein expressed on the spot, then analyte protein without His-tag added; pair label = capture-analyte
[3] = target: B4; experiment: nIR fluorescence spectra (1000-1100 nm) of one SWNT/chitosan Ni-NTA array spot before expression, after the His-tag capture protein and after the analyte protein without His-tag; pair label = capture-analyte
[4] = target: B4; experiment: label-free nIR fluorescence (1045 nm) of SWNT/chitosan Ni-NTA array spots; His-tag capture protein expressed on the spot, then analyte protein without His-tag added; pair label = capture-analyte
[5] = target: T1, Fos (P01100) without His-tag; experiment: nIR fluorescence spectra (1000-1100 nm) of one SWNT/chitosan Ni-NTA array spot before expression, after the His-tag capture protein and after the analyte protein without His-tag; pair label = capture-analyte
His-tag Fos (P01100) [6] = target: T2, His-tag Fos (P01100) (human, UniProt P01100 1-380); experiment: change of the Ni2+-SWNT distance on adding the analyte, calculated by the Förster equation from nIR fluorescence of the SWNT/chitosan Ni-NTA array
T2 construct: Capture protein, expressed on the chip by cell-free synthesis with a His-tag
T2 sequence (P01100 other isoform, or with tags, fused parts or gaps limits assumed): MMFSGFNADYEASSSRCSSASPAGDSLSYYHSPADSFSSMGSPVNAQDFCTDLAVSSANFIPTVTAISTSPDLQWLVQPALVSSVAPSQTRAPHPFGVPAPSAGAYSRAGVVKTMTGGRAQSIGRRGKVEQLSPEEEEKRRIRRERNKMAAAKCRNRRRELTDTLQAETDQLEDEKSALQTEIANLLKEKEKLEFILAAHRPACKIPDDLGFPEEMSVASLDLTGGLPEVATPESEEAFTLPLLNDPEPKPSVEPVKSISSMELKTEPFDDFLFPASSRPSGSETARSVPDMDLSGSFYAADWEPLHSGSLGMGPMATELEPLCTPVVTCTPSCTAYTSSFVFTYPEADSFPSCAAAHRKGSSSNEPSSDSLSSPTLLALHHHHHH

His-tag Fos (P01100) [7] = target: T2, His-tag Fos (P01100); experiment: nIR fluorescence spectra (1000-1100 nm) of one SWNT/chitosan Ni-NTA array spot before expression, after the His-tag capture protein and after the analyte protein without His-tag; pair label = capture-analyte
His-tag Jun (P05412) [8] = target: B1; experiment: as above
His-tag CDK4 (P11802) = target: B3; experiment: change of the Ni2+-SWNT distance on adding the analyte, calculated by the Förster equation from nIR fluorescence of the SWNT/chitosan Ni-NTA array
His-tag Fos (P01100) [9] = target: T2, His-tag Fos (P01100); experiment: nIR fluorescence spectra (1000-1100 nm) of one SWNT/chitosan Ni-NTA array spot before expression, after the His-tag capture protein and after the analyte protein without His-tag; pair label = capture-analyte; remark: listed apart in the source
His-tag p16 (P42771) = target: B2; experiment: change of the Ni2+-SWNT distance on adding the analyte, calculated by the Förster equation from nIR fluorescence of the SWNT/chitosan Ni-NTA array
His-tag Jun (P05412) [10] = target: B1; experiment: nIR fluorescence spectra (1000-1100 nm) of one SWNT/chitosan Ni-NTA array spot before expression, after the His-tag capture protein and after the analyte protein without His-tag; pair label = capture-analyte; remark: listed apart in the source

Binder: B1
binding result [1]: binds

Binder: B2
binding result [2]: no binding
binding result [3]: no binding

Binder: B3
binding result [4]: no binding
binding result [5]: no binding

Binder: B4
Δd2 (His-tag Fos (P01100) [6]): 0.0236 nm

Binder: B5
binding result (His-tag Fos (P01100) [7]): no binding
binding result (His-tag Jun (P05412) [8]): no binding
Δd2 (His-tag CDK4 (P11802)): 0.0634 nm

Binder: B6
binding result (His-tag Fos (P01100) [9]): no binding
Δd2 (His-tag p16 (P42771)): 0.0517 nm
binding result (His-tag Jun (P05412) [10]): no binding
